The text below walks through data of US20160152733A1.

Where a chain is given by its changes, count along the chain named.

The target in assay [1] is human CD45R0 antigen (splice variant/isoform CD45R0 of CD45 antigen, PTPRC), cell-bound (human) (UniProt P08575). As to the kind of experiment: flow cytometry on human PBMC, from max. MFI; relative to muCD45R0 = 100%.
Assay [2] has the same target. As to the kind of experiment: flow cytometry, indirect staining of human PBMC, Fab 1-10 µg/mL + anti-His-PE.
For assay [3] the target is unchanged. As to the kind of experiment: flow cytometry, human PBMC gated on living CD45RA-negative WBC, Fab 5 µg/mL + anti-His-PE.
The target is the same in assay [4]. As to the kind of experiment: flow cytometry on human PBMC, from median fluorescence at 5 µg/mL; relative to muCD45R0 = 100%.
Assay [5] shares this target. The assay can be described thus: flow cytometry on human PBMC, from median fluorescence at 5 µg/mL; muCD45R0 set to 100%.
Assay [6] shares this target. The assay can be described thus: flow cytometry, biotinylated Fab 5 µg/mL on human CD3+ CD45RA- T cells, donor 2 (text: anti-Biotin-PE; table head: anti-HIS-PE).
Assay [7] shares this target. The assay can be described thus: flow cytometry on human T cells, from median fluorescence at 5 µg/mL; muCD45R0 set to 100%.
Assay [8] shares this target. The assay can be described thus: flow cytometry, biotinylated Fab 5 µg/mL on human CD3+ CD45RA- T cells, donor 1 (text: anti-Biotin-PE; table head: anti-HIS-PE).
For assay [9] the target is unchanged. The assay can be described thus: flow cytometry on human PBMC, from max. MFI; muCD45R0 set to 100%.

B1: Fab variant "huCD45R0_v1" (humanized, 4D5 framework with backmutations) (Fab, V domains shown, not shown: small tags and cut ends)
VH: EVQLVESGGGLVQPGGSLRLSCAFSGFSLTTYGIGVGWIRQAPGKGLEWLTHIWWNDNKYYADSVKGRFTISKDSSKNTVYLQMNSLRAEDTAVYYCLYGYTYWGQGTLVTVSS
VL: DIQMTQSPSSLSASVGDRVTITCRSSQSLLYSNGNTYLHWYQQKPGKAPKLLIYKLSNRFSGVPSRFSGSRSGTDFTLTISSLQPEDFATYYCSQSTHVPWTFGQGTKVEIKR
For the molecule B1, the relative affinity (%) in [1] was determined as 8%. In [2], the max. mean fluorescence (anti-HIS-PE) came to 3.

B2: Fab variant "huCD45R0_v2" (humanized, 4D5 framework with extended backmutations) (Fab, V domains shown, not shown: small tags and cut ends)
VH: B1 VH with E1Q, V2I, K66R
VL: B1 VL with I2V, Q3V, S7T, T22S, S65D, R71G
Take B2: the median fluorescence (anti-HIS PE) in assay [3] stood at 8. The molecule further registered a relative affinity (%) in assay [4] of 31%.

B3: Fab variant "muCD45R0" (chimeric Fab: variable regions of parental murine CD45R0 antibody clone UCHL1, human constant regions) (Fab, V domains shown, not shown: small tags and cut ends)
VH: QITLKESGPGILQPSQTLSLTCSFSGFSLTTYGIGVGWIRQPPGKGLEWLTHIWWNDNKYYNTALRSRLTISKDSSNNQVLLKIANVDTADTATYYCLYGYTYWGQGTLVTVSA
VL: DVVMTQTPLSLPVSLGDQASISCRSSQSLLYSNGNTYLHWYLQKPGQSPKLLIYKLSNRFSGVPDRFSGSGSGTDFTLKISRVEAEDLGVYFCSQSTHVPWTFGGGTKLEIKR
For B3, in assay [3], the median fluorescence (anti-HIS PE) came to 26. The relative affinity (%) in assay [5], in [7] and in assay [9] was 100% each time. Further, the median fluorescence, donor 2 in assay [6] was 21. Moreover, the median fluorescence, donor 1 in [8] is 8. For the same molecule, in assay [2], the max. mean fluorescence (anti-HIS-PE) is 37.

B4: Fab variant "huCD45R0_v3" (humanized, germline IGHV2-5*01 / IGKV2-30*01 framework with backmutations) (Fab, V domains shown, not shown: small tags and cut ends)
VH: QITLKESGPTLVKPTQTLTLTCTFSGFSLTTYGIGVGWIRQPPGKALEWLTHIWWNDNKYYSPSLKSRLTITKDSSKNQVVLTMTNMDPVDTATYYCLYGYTYWGQGTLVTVSA
VL: B3 VL with S14T, D17Q, Q18P, L42Q, K44R, K50R, L88V, F92Y
With B4, the median fluorescence (anti-HIS PE) in assay [3] was 43. In assay [6], this molecule had a median fluorescence, donor 2 of 24. Also, the relative affinity (%) in [4] was found to be 165%. The median fluorescence, donor 1 in assay [8] came out at 9.5.
